84 variants from the RNAGym collection of RNA variant scans (doi:10.1093/molbev/msab373) can be followed below.

To fix the notation:
B1: Azoarcus group I ribozyme (parent)
chain: GUGCCUUGCGCCGGGAAACCACGCAAGGGAUGGUGUCAAAUUCGGCGAAACCUAAGCGCCCGCCCGGGCGUAUGGCAACGCCGAGCCAAGCUUCGGCGCCUGCGCCGAUGAAGGUGUAGAGACUAGACGGCACCCACCUAAGGCAAACGCUAUGGUGAAGGCAUAGUCCAGGGAGUGGCGAAAGUCACACAAACCGG

The variants in this data set derive from B1. The experiment in a line: reverse-splicing fitness (ratio to wild type); higher = more active; in vitro selection; Mg2+ level not given. Put shortly: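 An in vitro group I ribozyme library with randomized positions was T7-transcribed and gel-purified. In triplicate, 10 pmol RNA in EPPS pH 7.5 was reacted with 50 pmoles of a 30-nt RNA substrate for 1 h at 37 °C across several added MgCl2 levels (1–48 mM), then stopped with EDTA. Products were reverse transcribed from a substrate-complementary primer, PCR-amplified and sequenced (HiSeq 4000). Fitness is a variant's read proportion after selection over that before, normalised to wild type.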
As to C82A A120C A145U C169U, the reverse-splicing fitness came out at 0.0199. Consider C82A A120C A145U C169A, for which the reverse-splicing fitness turned out to be 0.00925. In the case of C82A A120C C169G, the reverse-splicing fitness amounted to 0.00961.

On to C82A A120C C169U, for which the reverse-splicing fitness was found to be 0.0186. For the variant C82A A120C C169A, the reverse-splicing fitness is 0.0104.

As to C82A A120G A145U C169G, the reverse-splicing fitness stood at 0.0204.

Consider C82A A120G A145U C169A, for which the reverse-splicing fitness is 0.0137. The figure for C82A A120G A145U C169U is 0.0145; for C82A A120C C150U U176G it is 0.0111. Consider C82A A120C C150U U176C, for which the reverse-splicing fitness worked out at 0.0394. With C82A A120C C150U U176A, the reverse-splicing fitness was determined as 0.0246.

As for C82A A120G A145C C150G C169A U176A, the reverse-splicing fitness amounted to 0.00899.

As to C82A A120G A145C C150G C169A U176G, the reverse-splicing fitness was found to be 0.00399. For C82A A120G A145C C150G C169A U176C, the reverse-splicing fitness turned out to be 0.00611.

On to C82A A120G C150A C169G U176A, for which the reverse-splicing fitness came to 0.0195. The figure for C82A A120G C150A C169G U176G is 0.00524; for C82A A120G C150A C169G U176C it is 0.0267; for C82A A120C A145U C150G C169U U176G it is 0.00519.

Turning to C82A A120C A145U C150G C169U U176A, the reverse-splicing fitness stood at 0.00709. For the variant C82A A120C A145U C150G C169U U176C, the reverse-splicing fitness came out at 0.00999. Regarding C82A A120C A145U C169U U176A, the reverse-splicing fitness was 0.0169.

As to C82A A120C A145U C169U U176C, the reverse-splicing fitness was 0.0114. The figure for C82A A120C A145U C169U U176G is 0.0041. For C82A A120G C150U C169G U176A the value was 0.0162; for C82A A120G C150U C169G U176G, 0.00468. Take C82A A120G C150U C169G U176C: the reverse-splicing fitness amounted to 0.0193. The figure for C82A A120C C150A U176G is 0.00826; for C82A A120C C150A U176C it is 0.0248; for C82A A120C C150A U176A it is 0.0151. For C82A A120G A145G C150G C169U U176G the value was 0.00741. The figure for C82A A120G A145G C150G C169U U176A is 0.0129.

With C82A A120G A145G C150G C169U U176C, the reverse-splicing fitness was 0.0123.

In the case of C82A A120G A145C C150G U176A, the reverse-splicing fitness came out at 0.00476.

For C82A A120G A145C C150G U176G, the reverse-splicing fitness worked out at 0.00304. The figure for C82A A120G A145C C150G U176C is 0.00686. Turning to C82A A120G A145C C169U U176A, the reverse-splicing fitness was 0.0217. Take C82A A120G A145C C169U U176C: the reverse-splicing fitness was 0.0129. For C82A A120G A145C C169U U176G the value was 0.00381; for C82A A120G C150U C169A U176C, 0.0163; for C82A A120G C150U C169A U176G, 0.00471.

As to C82A A120G C150U C169A U176A, the reverse-splicing fitness stood at 0.0169. For C82A A120C A145U C169A U176C the value was 0.0124; for C82A A120C A145U C169A U176G, 0.00493. With C82A A120C A145U C169A U176A, the reverse-splicing fitness is 0.0129. Consider C82A A120G A145C C150U C169U, for which the reverse-splicing fitness was determined as 0.00958. As to C82A A120G A145C C150U C169G, the reverse-splicing fitness is 0.00984. The figure for C82A A120G A145C C150U C169A is 0.00915; for C82A A120G A145C C150U it is 0.0107; for C82A A120G A145C C150A it is 0.00678. In the case of C82A A120G A145C C150G, the reverse-splicing fitness was found to be 0.0075. Turning to C82A A120G C150G C169A U176G, the reverse-splicing fitness stood at 0.00619. For C82A A120G C150G C169A U176A the value was 0.0116; for C82A A120G C150G C169A U176C, 0.0109. As to C82A A120G A145G C169A U176A, the reverse-splicing fitness turned out to be 0.0208. With C82A A120G A145G C169A U176G, the reverse-splicing fitness came out at 0.00382. As to C82A A120G A145G C169A U176C, the reverse-splicing fitness is 0.0273. For C82A A120G A145G C150A C169G U176G the value was 0.00523; for C82A A120G A145G C150A C169G U176A, 0.018; for C82A A120G A145G C150A C169G U176C, 0.0247. As to C82A A120G A145G C150G C169G U176C, the reverse-splicing fitness came out at 0.0124. Take C82A A120G A145G C150G C169G U176G: the reverse-splicing fitness was 0.00587. The figure for C82A A120G A145G C150G C169G U176A is 0.0097.

Turning to C82A A120C A145U C150U, the reverse-splicing fitness is 0.086. Turning to C82A A120G A145U C150G C169G, the reverse-splicing fitness was determined as 0.00902.

For the variant C82A A120G A145U C150G C169U, the reverse-splicing fitness worked out at 0.00862.

As for C82A A120G A145U C150G C169A, the reverse-splicing fitness was determined as 0.00891. The figure for C82A A120C C169A U176G is 0.00458; for C82A A120C C169A U176C it is 0.0229; for C82A A120C C169A U176A it is 0.0198. For C82A A120G A145G C150G C169A the value was 0.01. For C82A A120G A145G C150G C169G the value was 0.00916.

Turning to C82A A120G A145G C150G C169U, the reverse-splicing fitness was 0.0106. As for C82A A120G A145U C150U C169U U176G, the reverse-splicing fitness came out at 0.00449. Turning to C82A A120G A145U C150U C169U U176C, the reverse-splicing fitness came to 0.0174. For C82A A120G A145U C150U C169U U176A the value was 0.0201. For C82A A120G A145C C150U U176G the value was 0.0042. For C82A A120G A145C C150U U176A the value was 0.0106. Turning to C82A A120G A145C C150U U176C, the reverse-splicing fitness came to 0.0102. For C82A A120C A145U C150U U176A the value was 0.0269; for C82A A120C A145U C150U U176C, 0.0422. For the variant C82A A120C A145U C150U U176G, the reverse-splicing fitness amounted to 0.00864.

Take C82A A120G A145U C150G C169U U176A: the reverse-splicing fitness was found to be 0.0124. On to C82A A120G A145U C150G C169U U176C, for which the reverse-splicing fitness was determined as 0.0127. The figure for C82A A120G A145U C150G C169U U176G is 0.00511.
